The results in this text go back to patent publication US20220169679A1 (THAI UNION GROUP PUBLIC, published 2022).

Assay in all cases: cell-based or functional assay
For test [1], the target named is angiotensin I-converting enzyme (ACE).
Test [2] shares this target. The source holds these as a separate data set.
Test [3] has the same target. The source holds these as a separate data set.

“And” between values parts separate entries of the source, which are not always exact repeats. Identical values can stand only once.

B1: LPPGKIV (SEQ ID NO: 18) (peptide)
peptide: LPPGKIV
Consider B1, for which the “ACE inhibition (%) at 1 mg/ml” value in test [1] was determined as 71.7%.

B2: NGPSGQTG (SEQ ID NO: 21) (peptide)
peptide: NGPSGQTG
Take B2: the “ACE inhibition (%) at 1 mg/ml” value in test [1] is 25.9%.

B3: QGPPGNPG (SEQ ID NO: 32) (peptide)
peptide: QGPPGNPG
Consider B3, for which the “ACE inhibition (%) at 1 mg/ml” value in test [1] was 2.91%.

B4: LLHAKPLN (SEQ ID NO: 28) (peptide)
peptide: LLHAKPLN
As to B4, the “ACE inhibition (%) at 1 mg/ml” value in test [1] was determined as 79%.

B5: FDQFLPIH (SEQ ID NO: 20) (peptide)
peptide: FDQFLPIH
B5: the “ACE inhibition (%) at 1 mg/ml” value in test [1] worked out at 88.4%.

B6: IKVGGERF (SEQ ID NO: 29) (peptide)
peptide: IKVGGERF
Turning to B6, the “ACE inhibition (%) at 1 mg/ml” value in test [1] came out at 24.3%.

B7: VIYSR (SEQ ID NO: 6) (peptide)
peptide: VIYSR
For B7, in test [2], the “ACE inhibitory activity (%) at 1 µg/ml” value was found to be 12.1% and the “ACE inhibitory activity (%) at 1 mg/ml” value came out at 97.8%.

B8: INCR (SEQ ID NO: 7) (peptide)
peptide: INCR
For the molecule B8, in test [2], the “ACE inhibitory activity (%) at 1 µg/ml” value was determined as 29.1% and the “ACE inhibitory activity (%) at 1 mg/ml” value was determined as 101%.

B9: HFAASGK (SEQ ID NO: 24) (peptide)
peptide: HFAASGK
Take B9: the “ACE inhibition (%) at 1 mg/ml” value in test [1] stood at 27%.

B10: SFLMRK (SEQ ID NO: 15) (peptide)
peptide: SFLMRK
As to B10, the “ACE inhibition (%) at 1 mg/ml” value in test [1] came to 77.7%.

B11: LIHAIL (SEQ ID NO: 14) (peptide)
peptide: LIHAIL
On to B11, for which the “ACE inhibition (%) at 1 mg/ml” value in test [1] was determined as 33.4%.

B12: APPHIF (SEQ ID NO: 23) (peptide)
peptide: APPHIF
Consider B12, for which the “ACE inhibition (%) at 1 mg/ml” value in test [1] is 82%.

B13: VEWKERATE (SEQ ID NO: 27) (peptide)
peptide: VEWKERATE
Consider B13, for which the “ACE inhibition (%) at 1 mg/ml” value in test [1] worked out at 15.5%.

B14: VIY (peptide)
peptide: VIY
B14: the “ACE inhibitory activity (%) at 1 mg/ml” value in test [2] turned out to be 18.5%.

B15: KKLEKKTT (SEQ ID NO: 30) (peptide)
peptide: KKLEKKTT
As to B15, the “ACE inhibition (%) at 1 mg/ml” value in test [1] is 21.5%.

B16: LEQVSAGTT (SEQ ID NO: 25) (peptide)
peptide: LEQVSAGTT
Consider B16, for which, in test [1], the “ACE inhibition (%) at 1 mg/ml” value is 1.9%.

B17: VSVVQYSR (SEQ ID NO: 4) (peptide)
peptide: VSVVQYSR
Consider B17, for which, in test [1], the “ACE inhibition (%) at 1 mg/ml” value amounted to 94.2%. The “IC50 of ACE inhibitory activity” value in test [3] is 0.89 µg/ml and 0.95 µM.

B18: IFERL (SEQ ID NO: 19) (peptide)
peptide: IFERL
Regarding B18, the “ACE inhibition (%) at 1 mg/ml” value in test [1] turned out to be 45.3%.

B19: … (SEQ ID NO: 31) (peptide)
peptide: GVPGIHGS
Take B19: the “ACE inhibition (%) at 1 mg/ml” value in test [1] turned out to be 70.6%.

B20: LLDHRANL (SEQ ID NO: 22) (peptide)
peptide: LLDHRANL
With B20, the “ACE inhibition (%) at 1 mg/ml” value in test [1] is 29.2%.

B21: GPLYHS (SEQ ID NO: 13) (peptide)
peptide: GPLYHS
With B21, the “ACE inhibition (%) at 1 mg/ml” value in test [1] stood at 85.8%.

B22: VLMSQVFKQT (SEQ ID NO: 16) (peptide)
peptide: VLMSQVFKQT
For the molecule B22, the “ACE inhibition (%) at 1 mg/ml” value in test [1] was 55.1%.

B23: NLLPHR (SEQ ID NO: 3) (peptide)
peptide: NLLPHR
For B23, the “ACE inhibition (%) at 1 mg/ml” value in test [1] was 94.9%. Moreover, in test [3], the “IC50 of ACE inhibitory activity” value is 0.93 µg/ml and 1.24 µM.

B24: SRINCR (SEQ ID NO: 8) (peptide)
peptide: SRINCR
As for B24, in test [2], the “ACE inhibitory activity (%) at 1 µg/ml” value stood at 27.5% and the “ACE inhibitory activity (%) at 1 mg/ml” value was 98.8%.

B25: WTIHTP (SEQ ID NO: 17) (peptide)
peptide: WTIHTP
Turning to B25, the “ACE inhibition (%) at 1 mg/ml” value in test [1] amounted to 68%.

B26: VQSVPAT (SEQ ID NO: 26) (peptide)
peptide: VQSVPAT
For the molecule B26, the “ACE inhibition (%) at 1 mg/ml” value in test [1] stood at 36.9%.

B27: VIYSRINCR (SEQ ID NO: 5) (peptide)
peptide: VIYSRINCR
For B27, the “ACE inhibition (%) at 1 mg/ml” value in test [1] turned out to be 97%. Also, in test [3], the “IC50 of ACE inhibitory activity” value was 0.27 µg/ml and 0.24 µM.

B28: MTGLPGPTGP (SEQ ID NO: 33) (peptide)
peptide: MTGLPGPTGP
As for B28, in test [1], the “ACE inhibition (%) at 1 mg/ml” value was 49%.
